The experiment concerns the target T1, VP16-ERα chimera (full-length ERα fused to the Herpes simplex virus VP16 transactivation domain) (Herpes simplex virus, UniProt P03372 1-595).
T1 construct: Expressed in HeLa cells for the mammalian two-hybrid assay; also called pACT-ERα
T1 sequence: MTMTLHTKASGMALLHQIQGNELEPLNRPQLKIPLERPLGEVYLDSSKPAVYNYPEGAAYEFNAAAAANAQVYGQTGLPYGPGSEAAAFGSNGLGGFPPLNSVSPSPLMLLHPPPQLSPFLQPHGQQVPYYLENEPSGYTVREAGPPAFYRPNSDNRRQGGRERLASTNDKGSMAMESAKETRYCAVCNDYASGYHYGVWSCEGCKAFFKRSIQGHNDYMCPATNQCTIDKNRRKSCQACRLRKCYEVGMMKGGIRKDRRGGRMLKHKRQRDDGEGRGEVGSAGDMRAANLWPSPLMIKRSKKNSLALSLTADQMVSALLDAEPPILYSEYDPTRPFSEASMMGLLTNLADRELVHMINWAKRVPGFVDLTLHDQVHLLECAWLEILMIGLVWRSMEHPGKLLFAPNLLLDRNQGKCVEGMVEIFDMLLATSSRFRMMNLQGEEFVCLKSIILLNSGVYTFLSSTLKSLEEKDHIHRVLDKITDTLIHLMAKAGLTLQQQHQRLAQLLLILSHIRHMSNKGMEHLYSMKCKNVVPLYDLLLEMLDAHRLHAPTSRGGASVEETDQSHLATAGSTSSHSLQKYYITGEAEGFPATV
As to the kind of experiment: mammalian two-hybrid (luciferase reporter) in HeLa cells, hormone-free. For orientation: In a reporter assay the amount or activity of a reporter protein is the signal.

B1: GAL4-DBC-1-C terminal chimera (amino acids 479-923) (other, yeast;human, UniProt P04386 1-147, looked up)
chain: MKLLSSIEQACDICRLKKLKCSKEKPKCAKCLKNNWECRYSPKTKRSPLTRAHLTEVESRLERLEQLFLLIFPREDLDMILKMDSLQDIKALLTGLFVQDNVNKDAVTDRLASVETDMPLTLRQHRISATSSSEESSNKGQRQLTVSRRNAETPEATTQQETDTDLPEAPPPPLEPAVIARPGCVNLSLHGIVEDRRPKERISFEVMVLAELFLEMLQRDFGYRVYKMLLSLPEKVVSPPEPEKEEAAKEEATKEEEAIKEEVVKEPKDEAQNEGPATESEAPLKEDGLLPKPLSSGGEEEEKPRGEASEDLCEMALDPELLLLRDDGEEEFAGAKLEDSEVRSVASNQSEMEFSSLQDMPKELDPSAVLPLDCLLAFVFFDANWCGYLHRRDLERILLTLGIRLSAEQAKQLVSRVVTQNICQYRSLQYSRQEGLDGGLPEEVLFGNLDLLPPPGKSTKPGAAPTEHKALVSHNGSLINVGSLLQRAEQQDSGRLYLENKIHTLELKLEESHNRFSATEVTNKTLAAEMQELRVRLAEAEETARTAERQKSQLQRLLQELRRRLTPLQLEIQRVVEKADSWVEKEEPAPSN
notes: Expressed in HeLa cells for the mammalian two-hybrid assay
Consider B1, for which the binding result was “no binding”.

These data come from patent US20090062179A1 (University of Texas, published 2009).
